Results from patent US20220411498A1 (JACOBIO PHARMACEUTICALS, published 2022).

T1: cyno CD39 on the cell surface (293T/17-cyno CD39 cells) (cyno, UniProt P49961 7-510 (human entry))
T1 chain: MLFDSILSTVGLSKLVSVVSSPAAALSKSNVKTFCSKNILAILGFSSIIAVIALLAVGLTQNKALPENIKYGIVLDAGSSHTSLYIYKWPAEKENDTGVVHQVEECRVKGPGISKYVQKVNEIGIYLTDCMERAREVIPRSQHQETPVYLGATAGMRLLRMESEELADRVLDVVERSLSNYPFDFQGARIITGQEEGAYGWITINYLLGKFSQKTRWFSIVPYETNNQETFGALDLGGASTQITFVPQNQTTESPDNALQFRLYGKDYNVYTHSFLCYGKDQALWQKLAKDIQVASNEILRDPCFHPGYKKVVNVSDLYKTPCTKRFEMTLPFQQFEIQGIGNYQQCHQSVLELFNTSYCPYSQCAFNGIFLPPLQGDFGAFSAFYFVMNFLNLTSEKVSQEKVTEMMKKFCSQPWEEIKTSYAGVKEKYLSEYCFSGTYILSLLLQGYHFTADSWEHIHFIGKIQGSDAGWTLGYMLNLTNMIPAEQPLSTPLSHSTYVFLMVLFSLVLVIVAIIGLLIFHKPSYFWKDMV

T2: huCD39 on the cell surface (293T/17-huCD39 cells) (human, UniProt P49961 1-510)
T2 sequence (looked up): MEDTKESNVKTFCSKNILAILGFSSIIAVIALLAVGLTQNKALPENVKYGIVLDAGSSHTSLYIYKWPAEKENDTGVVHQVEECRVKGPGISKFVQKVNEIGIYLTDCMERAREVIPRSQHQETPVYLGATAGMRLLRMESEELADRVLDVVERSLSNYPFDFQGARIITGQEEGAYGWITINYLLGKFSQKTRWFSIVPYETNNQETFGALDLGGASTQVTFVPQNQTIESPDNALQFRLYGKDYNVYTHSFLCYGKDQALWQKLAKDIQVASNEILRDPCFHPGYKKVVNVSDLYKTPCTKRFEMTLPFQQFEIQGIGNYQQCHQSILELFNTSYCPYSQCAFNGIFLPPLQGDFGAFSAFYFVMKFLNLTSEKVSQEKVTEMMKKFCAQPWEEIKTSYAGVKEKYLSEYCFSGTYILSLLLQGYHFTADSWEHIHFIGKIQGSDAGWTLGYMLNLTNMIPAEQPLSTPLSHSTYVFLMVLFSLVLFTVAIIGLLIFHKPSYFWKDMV

T3: huCD39 recombinant protein (human, UniProt P49961 38-478)
T3 construct: the entry is the extracellular domain and ends in a histidine tag; also called soluble huCD39 protein; human CD39 extracellular domain recombinant protein
T3 sequence: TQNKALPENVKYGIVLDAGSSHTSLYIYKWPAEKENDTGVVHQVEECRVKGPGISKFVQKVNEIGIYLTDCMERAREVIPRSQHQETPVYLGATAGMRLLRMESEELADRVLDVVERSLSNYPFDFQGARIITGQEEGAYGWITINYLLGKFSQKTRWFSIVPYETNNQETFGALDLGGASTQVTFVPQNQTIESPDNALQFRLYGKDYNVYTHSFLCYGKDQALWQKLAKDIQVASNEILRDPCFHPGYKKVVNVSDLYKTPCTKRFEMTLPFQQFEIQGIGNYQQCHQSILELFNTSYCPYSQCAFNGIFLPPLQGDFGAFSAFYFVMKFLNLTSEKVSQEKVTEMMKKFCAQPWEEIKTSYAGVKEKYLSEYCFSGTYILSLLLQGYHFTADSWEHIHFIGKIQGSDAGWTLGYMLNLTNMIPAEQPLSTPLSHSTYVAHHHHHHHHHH


Columns and labels:
[1] = molecular target: T1, cyno CD39 on the cell surface …; experiment: cell-based or functional assay
[2] = molecular target: T2, huCD39 on the cell surface …; experiment: cell-based or functional assay
[3] = molecular target: T2, huCD39 on the cell surface …; experiment: flow cytometry on 293T/17-huCD39 cells
Method: (§1) Flow cytometry assay: recombinant host cell line 293T/17-huCD39 cells expressing huCD39 and recombinant host cell line 293T/17-cyno CD39 cells expressing cyno CD39 were used to evaluate the binding ability of the chimeric antibody to the natural CD39 protein on the cell surface. The recombinant cells were resuspended in PBS buffer, and 2×10⁶ cells were added to a 96-well U-plate. The chimeric antibody in a certain gradient dilution range incubated for 1h at 4° C. in a refrigerator or on ice, centrifuged at 1500 rpm for 3 min at 4° C., washed three times with PBS buffer, and then incubated for 30 min at 4° C. in the refrigerator or on ice with diluted Alexa Fluor 488-labeled goat anti-human polyclonal antibody (pAb): Goat anti-Human IgG (H+L) Cross-Adsorbed Secondary Antibody, Alexa Fluor 488 (thermo). Finally the cells were washed three times with PBS as described above and analyzed in MACSQuant flow cytometry. GraphPad Prism software was used to generate data plots and count affinity data (FIG. 2). The results are shown in Table 2, and the EC₅₀ values of each chimeric antibody of 293T/17-huCD39 and 293T/17-cyno CD39 was at the level of 10⁻⁹M.

[4] = molecular target: T1, cyno CD39 on the cell surface …; experiment: flow cytometry on 293T/17-cyno CD39 cells
Method: as §1

[5] = molecular target: T3, huCD39 recombinant protein; experiment: indirect ELISA, huCD39 recombinant protein coated at 1 ug/mL
Method: The Fv region of the four mouse-derived antibodies obtained in Example 1 was fused with the human IgG2 Fc region and constructed into the pcDNA3.1 vector. Then transfected 293F cells to express the antibody proteins, and the antibodies were purified by ProteinA affinity chromatography. […] The next day, the plates were washed 5 times with PBS buffer and blocked with 200 μL/well of 2% skimmed milk powder for 1 h. A certain dose range of chimeric CD39 antibody was incubated for 1 h at room temperature; then washed 5 times with PBST washing buffer (PBS, 0.05% Tween 20). 100 μL of HRP-labeled secondary antibody was added to each well and the plates were incubated for 30 min at room temperature. The plates were washed 5 times again and TMB (Life Technologies) was added for color development for 5 to 10 min. At last, 1N HCl was added to terminate the reaction, and the OD value was measured at 450 nm. GraphPad Prism software was used to generate data plots and the affinity data was counted (FIG. 1).

Blocking of ATPase activity on cell surface (293T/17-cyno CD39, CellTiter Glo): Bottom [1] | Blocking of ATPase activity on cell surface (293T/17-cyno CD39, CellTiter Glo): EC50 [1] [nM] | Blocking of ATPase activity on cell surface (293T/17-cyno CD39, CellTiter Glo): Top [1] | Blocking of ATPase activity on cell surface (293T/17-huCD39, CellTiter Glo): EC50 [2] [nM] | Blocking of ATPase activity on cell surface (293T/17-huCD39, CellTiter Glo): Top [2] | Bottom [3] | EC50 [3] [nM] | Top [3] | Bottom [4] | EC50 [4] [nM] | Top [4] | Bottom [5] [OD450] | EC50 [5] [nM] | Top [5] [OD450] | Blocking of ATPase activity on cell surface (293T/17-huCD39, CellTiter Glo): Bottom [2] | Binder
55600 | 0.024 | 275000 | 0.011 | 1.03e+06 | 2.17 | 5.92 | 151 | 1.81 | 11 | 191 | 0.06 | 2.43 | 1.43 |  | 216 hIgG2 (antibody, V domains shown, Chimeric antibody: mouse Fv fused to the human IgG2 constant region; also called chimeric antibody 216) VH: EVQLVESGGGLVKPGGSLKLPCAASGFTFSDYGMHWVRQAPEKGLEWVAYISSGSSIIYYADTVKGRFTISRDNAKNTLFLQMTSLRSEDTAMYYCARDLYYDHVLDYWGQGTTLTVAS VL: DIQMTQSPSSLSASLGERVSLTCRASQEISGYLIWLQQKPDGTIKRLIYAASTLDSGVPKRFSGNRSGSDYSLTISSLESEDFADYYCLQYASYPRTFGGGTKLEIKR
42200 | 0.029 | 283000 | 0.008 | 1.19e+06 | 5.8 | 3.8 | 116 | 3 | 9.49 | 160 | 0.07 | 4.8 | 1.39 | 147000 | 217 hIgG2 (antibody, V domains shown, Chimeric antibody: mouse Fv fused to the human IgG2 constant region) VH: EVQLVESGGGLVKPGGSLKLSCAASGFTFSDYGMHWVRQAPEKGLEWVAYISSGSSVIYYVDTVKGRFTISRDNAKNTLFLQMTSLRSEDTAMYYCARDLYYDHVLDSWGQGTTLTVSS VL: DIQMTQSPSSLSASLGERVSLTCRASQEIGGYLSWLQQKPDGTIKRLIYAASTLDSGVPKRFSGSRSGSDYSLTISSLESEDFADYYCLQYASYPRTFGGGTKLEIKR
44500 | 0.024 | 303000 | 0.01 | 800000 | 3.81 | 4.51 | 156 | 3.33 | 8.16 | 214 | 0.052 | 1.69 | 1.33 | 172000 | 219 hIgG2 (antibody, V domains shown, Chimeric antibody: mouse Fv fused to the human IgG2 constant region; also called chimeric antibody 219) VH: EVQLVESGGGLVKPGGSLKLSCAASGFTFSDYGMHWVRQAPEKGLEWVAYISSGSSIRYYADTVKGRFTISRDNAKNTLFLQMTSLRSEDTAIYYCARDLYYDHVLDYWGQGTTLTVSS VL: DIQMTQSPSSLSASLGERVSLTCRASQEVSGYLNWLQQKPDGTIKRLIYAASTLDSGVPKRFSGSRSGSDYSLTISSLESEDFADYYCLQYASYPRTFGGGTKVEIKR
42300 | 0.014 | 232000 | 0.004 | 871000 | -6.24 | 6.56 | 189 | 3.23 | 8.69 | 209 | 0.046 | 1.4 | 1.64 | 119000 | 201 hIgG2 (antibody, V domains shown, Chimeric antibody: mouse Fv fused to the human IgG2 constant region, expressed in 293F cells; also called chimeric antibody 201) VH: EVQLVESGGGLVKPGGSLKLSCAASGFTFSDYGMHWVRQAPEKGLEWVAYISSGSSIMYYADTVKGRFTISRDNAKNTLFLQMASLRSEDTAMYYCARDLYYDHVLDYWGQGTTLTVSS VL: DIQMTQSPSSLSASLGERVSLTCRASQEIRGYLIWLQQKPGGTIKRLIYAASTLDSGVPKRFSGSRSGSDYSLTISSLESEDFADYYCLQYTSYPRTFGGGTKLEIKR
